The record followed here is doi:10.1101/709485 (bioRxiv, 2019).

Non-standard residues stand in square brackets, D forms with d. No end group written: not given here. pT = C[C@@H](OP(=O)(O)O)[C@H](N)C(=O)O

Assay [1] deals with SUMO2 (UniProt P61956). Nature of the assay: NMR titration.
The target in a further assay is SUMO1 (UniProt P63165). Nature of the assay: NMR titration.
Assay [2] addresses SUMO2 (UniProt P61956).
The target of assay [3] is Chk2-FHA domain (aa:64-212) (UniProt O96017 64-212). Nature of the assay: ITC.
Chk2-FHA domain (aa:64-212), sequence (O96017 64-212): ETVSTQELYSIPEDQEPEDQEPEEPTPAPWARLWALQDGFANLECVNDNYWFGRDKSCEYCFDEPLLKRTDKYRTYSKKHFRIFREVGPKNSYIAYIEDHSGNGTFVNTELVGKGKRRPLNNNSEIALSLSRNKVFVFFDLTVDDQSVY

SUMO1, sequence (P63165 1-97): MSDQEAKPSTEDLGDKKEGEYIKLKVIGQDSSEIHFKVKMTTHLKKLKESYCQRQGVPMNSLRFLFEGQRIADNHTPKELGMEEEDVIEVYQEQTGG

“pSLS4 peptide of ICP0 (SLS4 phosphorylated at Ser365)”: the Kd stood at 7 µM with SUMO2 [1] and 16 µM with SUMO1.
As to SLS4 peptide of ICP0, the results for the Kd in the assay with SUMO2 [1] and in the assay with SUMO1 were 81 µM and 128 µM, respectively.
“ppSLS4 peptide of ICP0 (SLS4 phosphorylated at Ser365 and Ser367)”: the Kd in the assay with SUMO2 [1] is 3 µM; in the assay with SUMO1, 5 µM.
“ICP0pm (phosphomimetic full-length ICP0, Ser365 and Ser367 mutated to aspartic acids) (from UniProt P08393 1-775) (enzyme)”: the STUbL activity on SUMOylated FLAG-PMLs, against ICP0 (fold (against ICP0)) with SUMO2 [2] is 5.
Regarding DDDSASEADSTD[pT]ELFETGL [ICP0-FBM peptide, phosphorylated at Thr67 (FHA Binding Motif, aa: 55-74)], in assay [3], binding was characterised by a dissociation constant (Kd) of 0.75 ± 0.05 µM, the dH was -5.8 ± 0.1 kcal/mol and the “stoichiometry N” value came to 1.23.
